Measurements taken from patent US7612044.

Each binder was assayed against T1, HLA-A2.1 (heavy chain with human beta 2-microglobulin) (human) (assay: competition with radiolabeled HBc18-27 for soluble HLA-A2.1 + b2m, gel filtration).

Row | IC50 | Binder
1 | 483 nM | LLDGTATLRL (modifications not checked) [gp100 peptide G10-4]
2 | 40 nM | YMNGTMSQV (modifications not checked) [tyrosinase peptide T9369]
3 | 13 nM | VLYRYGSFSV (modifications not checked) [gp100 peptide G10-5]

The binders below were run against T1, HLA-A2.1 (heavy chain with human beta …) (assay: IC50 of standard HBc18-27 peptide ([…] nM) / IC50 of sample peptide, same competition assay).

Row | Ratio to Standard | Binder
4 | 0.01 | LLDGTATLRL (modifications not checked) [gp100 peptide G10-4]
5 | 0.13 | YMNGTMSQV (modifications not checked) [tyrosinase peptide T9369]
6 | 0.38 | VLYRYGSFSV (modifications not checked) [gp100 peptide G10-5]

What follows are binders tested against T1, HLA-A2.1 (heavy chain with human beta …) (assay: competition with 5 nM radiolabeled HBc18-27 for HLA-A2.1 + b2m, gel filtration).

Row | IC50 | Binder
7 | 21 nM | KTFGQYWQV (modifications not checked) [G9-154-3F]
8 | 20 nM | ILSQVPFSV (modifications not checked) [G9-209-2L3S]
9 | 60 nM | WTWGQYWQV (modifications not checked) [G9-154-1W]
10 | 1.6 nM | LLWGQYWQV (modifications not checked) [G9-154-1L2L]
11 | 3 nM | KIWGQYWQV (modifications not checked) [G9-154-2I]
12 | 1.7 nM | YLWGQYWQV (modifications not checked) [G9-154-1Y2L]
13 | 2.5 nM | YTWGQYWQV (modifications not checked) [G9-154-1Y]
14 | 5.2 nM | ATWGQYWQV (modifications not checked) [G9-154-1A]
15 | 1.6 nM | FTWGQYWQV (modifications not checked) [G9-154-1F]
16 | 40 nM | ITMQVPFSV (modifications not checked) [G9-209-3M]
17 | 3.4 nM | LTWGQYWQV (modifications not checked) [G9-154-1L]
18 | 5 nM | ILYQVPFSV (modifications not checked) [G9-209-2L3Y]
19 | 2 nM | KLWGQYWQV (modifications not checked) [G9-154-2L]
20 | 6.5 nM | KMWGQYWQV (modifications not checked) [G9-154-2M]
21 | 2.6 nM | FLWGQYWQV (modifications not checked) [G9-154-1F2L]
22 | 2.3 nM | ALWGQYWQV (modifications not checked) [G9-154-1A2L]
23 | 30 nM | KTYGQYWQV (modifications not checked) [G9-154-3Y]
24 | 2.8 nM | WLWGQYWQV (modifications not checked) [G9-154-1W2L]
